Consider nine substances from PMC7535908, “Dipeptidyl peptidase 3 modulates the renin–angiotensin system in mice” (The Journal of Biological Chemistry, 2020).

Test [1] addresses T1, purified recombinant human DPP3 (hDPP3) (Homo sapiens, UniProt Q9NY33).
T1 construct: made in house
T1 sequence (Q9NY33 1-737): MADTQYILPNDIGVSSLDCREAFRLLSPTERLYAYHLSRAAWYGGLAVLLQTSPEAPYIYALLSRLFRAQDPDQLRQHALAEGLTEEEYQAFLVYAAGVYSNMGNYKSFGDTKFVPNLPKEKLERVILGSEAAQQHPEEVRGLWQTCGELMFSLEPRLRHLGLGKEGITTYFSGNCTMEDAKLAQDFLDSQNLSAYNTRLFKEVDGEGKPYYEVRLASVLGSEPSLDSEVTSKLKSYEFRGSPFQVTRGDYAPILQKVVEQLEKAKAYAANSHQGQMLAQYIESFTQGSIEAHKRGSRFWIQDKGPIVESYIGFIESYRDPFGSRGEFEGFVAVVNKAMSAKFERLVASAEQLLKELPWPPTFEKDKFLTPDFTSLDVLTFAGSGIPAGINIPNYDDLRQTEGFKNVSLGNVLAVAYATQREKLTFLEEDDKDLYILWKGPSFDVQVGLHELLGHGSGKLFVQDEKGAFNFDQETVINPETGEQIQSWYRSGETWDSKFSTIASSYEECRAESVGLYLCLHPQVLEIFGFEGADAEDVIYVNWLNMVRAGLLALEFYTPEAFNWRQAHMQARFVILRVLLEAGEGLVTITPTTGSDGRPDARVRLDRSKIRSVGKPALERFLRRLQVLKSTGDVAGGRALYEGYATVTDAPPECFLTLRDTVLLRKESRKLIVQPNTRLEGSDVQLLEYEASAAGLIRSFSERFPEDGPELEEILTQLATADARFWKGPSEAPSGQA
Nature of the test: Single-injection ITC enzyme kinetics of angiotensin peptide hydrolysis by hDPP3. To be noted: for Substrate behaviour with DPP3 (heat signal, result in words): 5 µl of 2 mM peptide into 20 μM hDPP3, pH 8.0, 25 °C, no curve fitting possible for slow or poor substrates; for ΔH (enthalpy of interaction, heat of reaction) / kcat (maximum turnover number) / Km: 5 µl of 2 mM peptide into 200 µl of 20 μM hDPP3, 50 mM Tris-HCl pH 8.0, 100 mM NaCl, 25 °C, means ± S.D., three or more technical replicates from two biological replicates; for kcat (maximum turnover number) / Km: Michaelis–Menten fit, SD; for Km: read-out: Km (Michaelis–Menten constant). In kind it is biochemical. An excerpt: Thus, we investigated the activity of DPP3 against different angiotensin peptides. Kinetic parameters of angiotensin peptides were obtained by single-injection calorimetry measurements that are based on the exothermal hydrolysis of peptide bonds by purified recombinant human DPP3, which shares 93% sequence identity with the mouse DPP3. […] The graphs show the rate of angiotensin conversion as a function of its concentration. The insets depict the raw data of heat change caused by the conversion of substrate peptides.
Figure 9. […] The reaction was started by injecting 5 µl of 2 mM angiotensin peptides to the calorimetric cell containing 20 μM hDPP3. The data represent three or more technical replicates from two biological replicates.
Calorimetric activity of six different angiotensin peptides as purported substrates of DPP3 were further assayed using a MicroCal PEAQ-ITC (Malvern Panalytical Ltd., Malvern, UK). […] For this, the single-injection method was used, in which 5 µl of 2 mM angiotensin peptide was titrated into 200 µl of 20 μM purified hDPP3. The purification of recombinant hDPP3 was done as described in Ref. [35]. Both the ligand and the purified protein were prepared in 50 mM Tris-HCl at pH 8.0 containing 100 mM NaCl. The experiments consisted of a single injection of the ligand continuously over a period of 10 s, including an initial delay of 180 s before the injection and a spacing of 300 s after the injection. The experiments were performed at 25 °C with a stirring speed of 500 rpm. The thermodynamic characterization of this binding interaction was obtained using MicroCal PEAQ-ITC analysis software.

Test [2] concerns the target T2, purified recombinant human DPP3 (dipeptidyl peptidase 3) (human) (UniProt Q9NY33).
T2 sequence: T1 sequence (Q9NY33 1-737)

“Ang(1–7): angiotensin peptide (1–7), commercially purchased (Bachem), main metabolite of the alternate RAS”: in test [1], the “Substrate behaviour with DPP3 (heat signal, result in words)” value (shortened to “Substrate behaviour with DPP3”) was ““good” substrates”; the “ΔH (enthalpy of interaction, heat of reaction)” value was -1.52 ± -0.10 kcal/mol; the “kcat (maximum turnover number)” value is 0.14 ± 0.003 s⁻¹; the Km worked out at 1.95 ± 0.2 µM.
Turning to tynorphin, in test [1], the “Substrate behaviour with DPP3” value is listed as ““slow” substrates”.
Regarding “angiotensin (1–5), Ang(1–5) (from UniProt P01019 25-29) (peptide)”, in test [2], the Km, single-injection ITC enzyme kinetics (hydrolysis of the peptide by hDPP3) came to 12.5 µM; the kcat, single-injection ITC enzyme kinetics (hydrolysis of the peptide by hDPP3) worked out at 0.35 s⁻¹; the ΔH (enthalpy of interaction, also called heat of reaction), single-injection ITC was -1.84 kcal/mol.
Regarding “angiotensin II, Ang II (1–8) (from UniProt P01019 25-32) (peptide)”, in test [2], the Km, single-injection ITC enzyme kinetics (hydrolysis of the peptide by hDPP3) was 8.4 µM and the kcat, single-injection ITC enzyme kinetics (hydrolysis of the peptide by hDPP3) was 0.25 s⁻¹.
As to “angiotensin (1–7), Ang(1–7) (from UniProt P01019 25-31) (peptide)”, in test [2], the Km, single-injection ITC enzyme kinetics (hydrolysis of the peptide by hDPP3) turned out to be 1.95 µM; the kcat, single-injection ITC enzyme kinetics (hydrolysis of the peptide by hDPP3) worked out at 0.14 s⁻¹; the ΔH (enthalpy of interaction, also called heat of reaction), single-injection ITC is -1.52 kcal/mol.
Regarding “Ang(1–5): angiotensin peptide (1–5), commercially purchased (Bachem) (DRVYI)”, in test [1], the “Substrate behaviour with DPP3” value is listed as ““good” substrates”; the “ΔH (enthalpy of interaction, heat of reaction)” value is -1.84 ± -0.04 kcal/mol; the “kcat (maximum turnover number)” value is 0.35 ± 0.002 s⁻¹; the Michaelis-Menten constant (Km) was 12.5 ± 2.2 µM.
“Ang I: angiotensin peptide (1–10), commercially purchased (Bachem), tested as purported substrate of DPP3 (DRVYIHPFHL)”: in test [1], the “Substrate behaviour with DPP3” value is listed as “poor substrate”.
On the same count and under the same terms, the value for “Ang III: angiotensin peptide (2–8), commercially purchased (Bachem)” was “both endothermic and exothermic behavior”; that for “Ang IV: angiotensin peptide (3–8), commercially purchased (Bachem)” was “both endothermic and exothermic behavior”.

A word on the Km: it is the substrate concentration at which the rate is half of its maximum.
